From the RNAGym collection of RNA variant scans (doi:10.1073/pnas.2313332121)

B1: TPR t1 (parent)
chain: GACCAAUCUGCCCUCAGAGCUCGAGAACAUCUUCGGAUGCAGAGGAGGCAGGCUUCGGUGGCGCGAUAGCGCCAACGUCCUCAACCUCCAAUGCAUCCCACCACAUGAUGAUGCCUGAAGAGCCUUGGUUUUUUG

Variants of: B1
Assay: polymerase ribozyme fitness, log enrichment relative to wild type (log ratio); higher = more active; in vitro selection for triplet polymerase activity
Summary of the method: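 A heterodimeric triplet polymerase ribozyme had each of its subunits mutagenized by PCR into a library, which was transcribed. One round of in vitro selection, done in triplicate, annealed each library with a biotinylated primer, its partner subunit and triplets, then incubated it frozen at −7 °C before gel excision of extended constructs, streptavidin-bead capture and RT-PCR. Fitness is the logarithm of genotype enrichment relative to wild-type enrichment, based on Illumina sequencing of inputs and outputs and inverse-variance-weighted replicate averages. A base-2 logarithm is used, and genotypes were kept only with ≥10 input reads and ≥1 read per output.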

| Variant | polymerase ribozyme fitness (log ratio) |
| --- | --- |
| GACCAAUCUGCCCUCAGAGUUCGAGAACAUCUUCGGAUGCAGCGGAAGCAGGCUUCGGUGGCGCGAUAGCGCCAACGUCCUGAACCUCCAAUGCUUCCCACCACCUGAUGAAGCCUGAAGAGCCUUGGUUUUUUG [C20U A43C G47A C82G A95U A105C U112A] | -4.61 |
| GACCAAUCUGCCCUCAGAGUUCGAGAACGUCUUCGGAUGCAGAGGAGGCAGGCUUCGGUGUCGCGAUAGCGCCAACGUCCUCAACCUCCAAUGCAUCCCACCACAUGAUGAUGCACUAAGAGCCUUGGUUUUUUG [C20U A29G G61U C115A U116C G117U] | -1.83 |
| GACCAAUCUGCCCUCAGAGUUCGAGAACAUCUUCGGAUGCAGUGGAGGCAGGGUUCGGUGGCGCGAUAGCGCCAACGUCCUCAACCUCCAAUGCAUCCCACCACAUGAUGAUGCCUGAAGAGCCUUGGUUUUUUG [C20U A43U C53G] | -2.28 |
| GACCAAUCUGCCCUCAGAGUUCGAGAACAUCUUCGGAUGCAGAGGUGGCAGGCUUCGGUGGCGCGAUAGCGCCAACGUCCUCAACCUCCAAUGCAUCCCACCACAUGAUGAUGCCUGAAGAGCCUUGGUUUUUUG [C20U A46U] | -2.88 |
| GACCAAUCUGCCCUCAGAGUUCGAGCACAUCUUCGGAUGCAGAGGAGGCAGACUUCGGUGGCGCGAUAACGGCAACGUCCUCAACCUCCAAUGCAUCCCACCACAUGAUGAUGCCUGGACAGCCUGGGUUUUUUG [C20U A26C G52A G69A C72G A118G G120C U126G] | -6.5 |
| GACCAAUCUGCCCUCAGAGGUCGAGAACAUCUUCGGAUGCAGAGGAGGCAGGCUUCGGUGGCGCGAUAGCGCCAACGUCCUCAACCUCCAAUGCAUCCCACCACAUGAUGAUGCCUGAACAGCCUUGGUUUUUUG [C20G G120C] | -2.75 |
| GACCAAUCUGCCCUCAGAGGUCGAGAACAUCUUCGGAUGCAGAGGAGGCAGGCUUCGGUCGCGCGAUAGCGCCAACGUCCUCAACCUCCAAUGCAUCCCACCACAUGAUGAUGCCUGAAGAGCCUUGGUUUUUUG [C20G G60C] | -4.55 |
| GACCAAUCUGCCCUCAGAGUUCGAGAACAUCUUCGGAUGCAGAGGUGGCAGGCUUCGGUGGCGCGAUAGCGCCAACGUCCUCAACCUCUAAUGCAUCCCACCACAUGAUGAUGCCUGAAGAGCCUUGGUUUUUUG [C20U A46U C89U] | -3.4 |
| GACCAAUCUGCCCUCAGAGUUCGAGAUCAUCUUCGGAUGCAGAGGAGGCAGGCUUCGGUGGCGUGAUAGCGCCAACGUCCUCAACCUCCAAUGCAUCCCACCACAUGAUGAUACCUGAAGAGCCUUGGUUUUUUG [C20U A27U C64U G113A] | -3.6 |
| GACCAAUCUGCCCUCAGAGUUCGUGAACAUCUUCGGAUGCAGAGGAGGCAGGCUUCGGUCGCCCGAUAACGCCAACGUCCGCAACCUCCAAUGCAUCGCACCACAUGAGGAUGCCUGAAGAGCCUUGGUUUUUUG [C20U A24U G60C G63C G69A U81G C98G U109G] | -6.52 |
| GACCAAUCUGCCCUCAGAGUUCGAGAACAUCUUCGGAUGCAGAGGAGGCUGGCUGCGGUGGCGCGAUAGCGCCAAUGUCCUCAACCUCCAAUGCAUCCCACCACAUGAUGACGCCUGAAGAGCCUUAGUUUUUUG [C20U A50U U55G C76U U112C G127A] | -4.02 |
| GACCAAUCUGCCCUCAGAGGUCGAGAACAUCUUCGGAUGCAGAGGAGGCAGGCUUCGGUGGCGCGAUAGCGCCAACGUCCUCAACCUCCAAUGCAUCCCACCACAAGAUGAUGCCUGAAGAGCCUUGGUUUUUUG [C20G U106A] | -4.68 |
| GACCAAUCUGCCCUCAGAGUUCGAGAACAUCUUCGGAUGCAGAGGGGGCAGGCUUCGGUGGCGCGAUAGCGCCAACGUCCUCAACCUCCAAUGUAUCCCACCACAUAAGGAUGCCUGAAAAGCCUUGGUUUUUUG [C20U A46G C94U G107A U109G G120A] | -5.88 |
| GACCAAUCUGCCCUCAGAGGUCGAGAACAUCUUCGGAUGCAGAGGAGGCAGGCUUCGGUGGCGCGAUAGCGCCAACGUCCUCAACCUCCAAUGCAUCCCACCACAUGAUGAUGCCUGAAGAGCCUUGGUUUUUUU [C20G G135U] | -4.02 |
| GACCAAUCUGCCCUCAGAGUUCGAGAACAUCUUCGGAUGCAGAGGAGGCAGGCUUCGGUGGCGCGAUAGCGCCAACGUCCUCAACCUCCUAUGCAUCCCACCACAUGAUGAUGCCUGAAGAGUCUUGGUUUUUUG [C20U A90U C123U] | -1.5 |
| GACCAAUCUGCCCUCAGAGUUCGAGAACAUCUUCGGUUGCAGAGGAGGCAGGCUUCGGUGGCGCGAUAGCGCCAACGUUCUCAACCUCCAAUGCAUCCCACCACAUGAUGAAGCCUGAAGAGCCUUGGUUUUUUG [C20U A37U C79U U112A] | 0.591 |
| GACCAAUCUGCCCUCAGAGUUCGAGAACAUCUUCGGAUGCAGGGGAGGCAGGCUUCGGUGGCGCGAUACCGCCAACGUCCUCAACCUUCAAUGCAUCCCACCACAUGAUGAUGCCUGAAGAGCCUUGGUAUUUUG [C20U A43G G69C C88U U130A] | -5.74 |
| GACCAAUCUGCCCUCAGAGGUCGAGAACAUCUUCGGAUGCAGAGGAGGCAGGCUGCGGUGGCGCGAUAGCGUCAACGUCCUCAACCUCCAAUGCAUCCCACCACAUGAUGAUGCCUGAGGAGCCUUGGUUUUUUG [C20G U55G C72U A119G] | -2.6 |
| GACCAAUCUGCCCUCAGAGUUCGAGCACAUCUUCGGAUGCAGAGGAGGCAGGCUUCGGUGGCGCGAUAGCGCCAACGUCCUCAACCUCUAAUGCAUCCCACCACAUGAUGAUGCCUGAAGAGCAUUGGUUUUUUG [C20U A26C C89U C124A] | -4.83 |
| GACCAAUCUGCCCUCAGAGGUCGAGAACAUCUUCGGAUGCAGAGGAGGCAGGCUUCGGUGACGCGAUAGCGCCAACGUCCUCAACCUCCAAUGCAUCCCACCACAUGAUGAUGCCUGAAGAGCCUUGGUUUUUUG [C20G G61A] | -3.66 |
| GACCAAUCUGCCCUCAGAGGUCGAGAACAUCUUCGGAUGCAGAGGAGGCAGGCUUCGGUGGCGCGAUAGCGCCAACGUCCUCAACCUCCAAUGCAUCCCACCACAUGAUGAAGCCUGAAGAGCCUUGGUUUUUUG [C20G U112A] | -2.38 |
